In PMC314469, “Protein Interaction Networks by Proteome Peptide Scanning” (PLoS Biology, 2004) one finds normalised SPOT signal, Boehringer light units (BLU); mean over the file's lines of this peptide data, which are given here for 54 molecules.

Sequences and labels used below:
T1: Abp1 SH3 (ABP1_YEAST), P15891
T1 chain: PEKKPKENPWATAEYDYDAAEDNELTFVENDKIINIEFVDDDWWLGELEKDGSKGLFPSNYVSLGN

This experiment has as its target T1, Abp1 SH3 (ABP1_YEAST), P15891. Description: SPOT array.
WRSKRIEQLFPVRP [YDL150W 191-204] returned a normalised SPOT signal, Boehringer light units (BLU); mean over the file's lines of this peptide of 201. The figure for YPQMLALPIARRP [YBL022C 179-191] is 8030. Then YRVYFSTPPNVKP [YBR037C 219-231], with 138.

Turning to YSRQAIPPPVPNRP [YLR144C 3-16], the normalised SPOT signal, Boehringer light units (BLU); mean over the file's lines of this peptide worked out at 1840. Regarding WTLNKDKIAHPVRP [YBR276C 624-637], the normalised SPOT signal, Boehringer light units (BLU); mean over the file's lines of this peptide stood at 1090. In the case of YEHLTSVKIVPQRP [YAL054C 40-53], the normalised SPOT signal, Boehringer light units (BLU); mean over the file's lines of this peptide was 113. Then YYRELLSFLSPGKP [YML005W 156-169], with 59.8. Regarding YYVSKRVPVKNRP [YNL023C 118-130], the normalised SPOT signal, Boehringer light units (BLU); mean over the file's lines of this peptide came to 211. The figure for WSIKLWDLSKPSKP [YAR003W 94-107] is 135; for WDGVIPTPAIIKP [YDL140C 556-568] it is 78; for AAPNSNVPTNERP [YGL122C 485-497] it is 146. VVYFSSIPPYMKP [YNR054C 115-127]: the normalised SPOT signal, Boehringer light units (BLU); mean over the file's lines of this peptide was 93.8. WSRHFFLPRSKRP [YBL012C 87-99] displayed a normalised SPOT signal, Boehringer light units (BLU); mean over the file's lines of this peptide of 324. The figure for YTNMNSLVATPMKP [YHR015W 541-554] is 145; for YYNDLSYYLRPIKP [Q0115 375-388] it is 128. The figure for YFTSSYFPDDRRP [YKL004W 102-114] is 304; for VVVMSTSDERPFRP [YGL165C 142-155] it is 146; for YLNESFVMQQPIKP [YGR067C 417-430] it is 179. YASPMYDFLYPFRP [YOR002W 18-31]: the normalised SPOT signal, Boehringer light units (BLU); mean over the file's lines of this peptide was 179.

As to YFPSKTVGSHPRKP [YPL162C 135-148], the normalised SPOT signal, Boehringer light units (BLU); mean over the file's lines of this peptide came out at 311. In turn, YTDNDDYPELDRP [YOR292C 157-169] displayed a normalised SPOT signal, Boehringer light units (BLU); mean over the file's lines of this peptide of 140. The molecule YKVYFSTPRDVKP [YBR024W 225-237] returned a normalised SPOT signal, Boehringer light units (BLU); mean over the file's lines of this peptide of 114. The figure for YEATPFDPITVKP [YNL330C 3-15] is 62.3; for VVSSKGTSTYPVKP [YJR105W 266-279] it is 112. The molecule YYSASPLPASKRP [YMR108W 43-55] displayed a normalised SPOT signal, Boehringer light units (BLU); mean over the file's lines of this peptide of 144.

VYYVSKAKLQPAKP [YAR007C 254-267] displayed a normalised SPOT signal, Boehringer light units (BLU); mean over the file's lines of this peptide of 135. For YQKTFKLPWDPRP [YBL086C 310-322], the normalised SPOT signal, Boehringer light units (BLU); mean over the file's lines of this peptide worked out at 155.

As for AAAPDVKPHDTKP [YPR125W 432-444], the normalised SPOT signal, Boehringer light units (BLU); mean over the file's lines of this peptide was 45.6. On to YKWTIPQPIGRRP [YGR238C 182-194], for which the normalised SPOT signal, Boehringer light units (BLU); mean over the file's lines of this peptide was 3200. AAELGNNALPPTKP [YNR046W 63-76] returned a normalised SPOT signal, Boehringer light units (BLU); mean over the file's lines of this peptide of 86.6.

The molecule VVVEFSSPNIAKP [YHR091C 181-193] registered a normalised SPOT signal, Boehringer light units (BLU); mean over the file's lines of this peptide of 86.6.

Molecule YKWTVPAPVGPRP [YHR158C 222-234] displayed a normalised SPOT signal, Boehringer light units (BLU); mean over the file's lines of this peptide of 1300. AAADSVSPDSQRP [YLL027W 53-65] registered a normalised SPOT signal, Boehringer light units (BLU); mean over the file's lines of this peptide of 182. The figure for YASALKEMTHPIKP [YLR239C 24-37] is 34.2. The figure for YVTFTTIPYKEKP [YCL058C 12-24] is 70.4. In the case of YTPTSSQPRPPPRP [YGR268C 67-80], the normalised SPOT signal, Boehringer light units (BLU); mean over the file's lines of this peptide stood at 532. YAEILKNRMNPEKP [YBL034C 847-860] yielded a normalised SPOT signal, Boehringer light units (BLU); mean over the file's lines of this peptide of 100. In turn, YDVIEVVPEPGKP [YDR301W 1057-1069] showed a normalised SPOT signal, Boehringer light units (BLU); mean over the file's lines of this peptide of 37. In turn, VVRTSKHWVLPPRP [YKL109W 62-75] gave a normalised SPOT signal, Boehringer light units (BLU); mean over the file's lines of this peptide of 2600. Turning to AAAAPPLPSDVRP [YDR159W 245-257], the normalised SPOT signal, Boehringer light units (BLU); mean over the file's lines of this peptide is 60.6.

In turn, VWYISYGEWGPRRP [YNL052W 72-85] yielded a normalised SPOT signal, Boehringer light units (BLU); mean over the file's lines of this peptide of 29.6. Then YIRNAVKENFPEKP [YBR137W 45-58], with 118; and YNPYGISPNHARP [YJR059W 184-196], with 223. Molecule YRLLRLLPHASRP [YOR267C 685-697] showed a normalised SPOT signal, Boehringer light units (BLU); mean over the file's lines of this peptide of 64. Molecule YDNKVEEGSKPKKP [YOR168W 668-681] registered a normalised SPOT signal, Boehringer light units (BLU); mean over the file's lines of this peptide of 140. For the molecule WRYLPAPPVSIRP [YOR116C 258-270], the normalised SPOT signal, Boehringer light units (BLU); mean over the file's lines of this peptide was 1240. As to YYRLDALPKDGKP [YGL245W 693-705], the normalised SPOT signal, Boehringer light units (BLU); mean over the file's lines of this peptide was 219. WIRSTLNHIIPRRP [YML061C 4-17] had a normalised SPOT signal, Boehringer light units (BLU); mean over the file's lines of this peptide of 66.3. Turning to YKDSFYKEMTPSKP [YOR177C 24-37], the normalised SPOT signal, Boehringer light units (BLU); mean over the file's lines of this peptide stood at 164. On to YKPWSAWSYLPPKP [YDL035C 229-242], for which the normalised SPOT signal, Boehringer light units (BLU); mean over the file's lines of this peptide came to 208. Then YNESAPLQPFPERP [YFL041W 454-467], with 15.5; and YYVLNPNNKQPIKP [YNL076W 85-98], with 82.3; and AAVPTKTIASPQRP [YOR227W 52-65], with 243. Regarding YNYSFQFDKFPRKP [YLR392C 110-123], the normalised SPOT signal, Boehringer light units (BLU); mean over the file's lines of this peptide came to 275.
